Assay results as given in US20240002531A1 (ONO PHARMACEUTICAL, published 2024).
Read-outs that look alike come from different tables or passages of the source.

Tests used:
Test in all cases: peptide ELISA, OD 655 nm
[1] = molecular target: T1, HER2 peptide p603-622 (amino acids 603 to 622 of human HER2) (human)
T1 construct: Synthetic peptide; also called wild-type HER2 peptide
T1 peptide: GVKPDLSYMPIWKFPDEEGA

[2] = molecular target: T2, G603A peptide (HER2 603-622 with G603A) (human)
T2 peptide: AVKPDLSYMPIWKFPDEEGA

[3] = molecular target: T3, V604A peptide (HER2 603-622 with V604A) (human)
T3 peptide: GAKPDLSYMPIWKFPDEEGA

[4] = molecular target: T4, K605A peptide (HER2 603-622 with K605A) (human)
T4 peptide: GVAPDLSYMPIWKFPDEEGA

[5] = molecular target: T5, P606A peptide (HER2 603-622 with P606A) (human)
T5 peptide: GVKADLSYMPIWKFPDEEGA

[6] = molecular target: T6, D607A peptide (HER2 603-622 with D607A) (human)
T6 peptide: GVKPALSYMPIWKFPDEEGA

[7] = molecular target: T7, L608A peptide (HER2 603-622 with L608A) (human)
T7 peptide: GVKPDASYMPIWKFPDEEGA

[8] = molecular target: T8, S609A peptide (HER2 603-622 with S609A) (human)
T8 peptide: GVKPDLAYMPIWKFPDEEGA

[9] = molecular target: T9, Y610A peptide (HER2 603-622 with Y610A) (human)
T9 peptide: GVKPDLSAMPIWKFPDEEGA

[10] = molecular target: T10, M611A peptide (HER2 603-622 with M611A) (human)
T10 peptide: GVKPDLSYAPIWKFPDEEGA

[11] = molecular target: T11, P612A peptide (HER2 603-622 with P612A) (human)
T11 peptide: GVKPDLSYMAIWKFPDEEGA

[12] = molecular target: T12, I613A peptide (HER2 603-622 with I613A) (human)
T12 construct: also called 1613A
T12 peptide: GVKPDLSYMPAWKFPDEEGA

[13] = molecular target: T13, W614A peptide (HER2 603-622 with W614A) (human)
T13 peptide: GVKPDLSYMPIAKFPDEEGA

[14] = molecular target: T14, K615A peptide (HER2 603-622 with K615A) (human)
T14 peptide: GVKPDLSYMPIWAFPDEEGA

[15] = molecular target: T15, F616A peptide (HER2 603-622 with F616A) (human)
T15 peptide: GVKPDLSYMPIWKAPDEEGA

[16] = molecular target: T16, P617A peptide (HER2 603-622 with P617A) (human)
T16 peptide: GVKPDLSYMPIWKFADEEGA

[17] = molecular target: T17, D618A peptide (HER2 603-622 with D618A) (human)
T17 peptide: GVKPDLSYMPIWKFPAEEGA

[18] = molecular target: T18, E619A peptide (HER2 603-622 with E619A) (human)
T18 peptide: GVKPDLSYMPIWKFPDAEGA

[19] = molecular target: T19, E620A peptide (HER2 603-622 with E620A) (human)
T19 peptide: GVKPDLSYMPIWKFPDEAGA

[20] = molecular target: T20, G621A peptide (HER2 603-622 with G621A) (human)
T20 peptide: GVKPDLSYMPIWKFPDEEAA

[21] = molecular target: T21, HER2_604-622C peptide (NH2-VKPDLSYMPIWKFPDEEGAC-COOH) (human)
T21 construct: KLH was added for immunisation, the peptide itself was coated in the screening ELISA
T21 peptide: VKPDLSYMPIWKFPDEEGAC

[22] = molecular target: T1, HER2 peptide p603-622 (amino acids 603 …)
[23] = molecular target: T2, G603A peptide (HER2 603-622 with G603A)
[24] = molecular target: T3, V604A peptide (HER2 603-622 with V604A)
[25] = molecular target: T4, K605A peptide (HER2 603-622 with K605A)
[26] = molecular target: T5, P606A peptide (HER2 603-622 with P606A)
[27] = molecular target: T6, D607A peptide (HER2 603-622 with D607A)
[28] = molecular target: T7, L608A peptide (HER2 603-622 with L608A)
[29] = molecular target: T8, S609A peptide (HER2 603-622 with S609A)
[30] = molecular target: T9, Y610A peptide (HER2 603-622 with Y610A)
[31] = molecular target: T10, M611A peptide (HER2 603-622 with M611A)
[32] = molecular target: T11, P612A peptide (HER2 603-622 with P612A)
[33] = molecular target: T12, I613A peptide (HER2 603-622 with I613A)
[34] = molecular target: T13, W614A peptide (HER2 603-622 with W614A)
[35] = molecular target: T14, K615A peptide (HER2 603-622 with K615A)
[36] = molecular target: T15, F616A peptide (HER2 603-622 with F616A)
[37] = molecular target: T16, P617A peptide (HER2 603-622 with P617A)
[38] = molecular target: T17, D618A peptide (HER2 603-622 with D618A)
[39] = molecular target: T18, E619A peptide (HER2 603-622 with E619A)
[40] = molecular target: T19, E620A peptide (HER2 603-622 with E620A)
[41] = molecular target: T20, G621A peptide (HER2 603-622 with G621A)
[42] = molecular target: T21, HER2_604-622C peptide …

B1: H2Mab-282 antibody (antibody, mouse IgG2a, kappa, V domains shown)
VH: QVQLQQSGAELSRPGASVKMSCKAAGYTFSSYMIHWVKQRPGQGLEWIGYINPSSGYSNYNQKFKDKATLTADKSSSTAYMQLSSLTSEDSAVYYCAFYDYDGDWGQGTLVTVSA
VL: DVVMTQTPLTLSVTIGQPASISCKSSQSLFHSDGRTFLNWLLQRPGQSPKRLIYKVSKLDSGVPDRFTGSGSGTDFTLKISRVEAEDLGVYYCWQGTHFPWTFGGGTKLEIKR
**Q.** Does B1 bind [1]?
**A.** binds

**Q.** Does B1 bind [2]?
**A.** binds

**Q.** Does B1 bind [3]?
**A.** binds

**Q.** Does B1 bind [4]?
**A.** binds

**Q.** Does B1 bind [5]?
**A.** binds

**Q.** Does B1 bind [6]?
**A.** binds

**Q.** Does B1 bind [7]?
**A.** binds

**Q.** Does B1 bind [8]?
**A.** binds

**Q.** Does B1 bind [9]?
**A.** binds

**Q.** Does B1 bind [10]?
**A.** binds

**Q.** Does B1 bind [11]?
**A.** binds

**Q.** Does B1 bind [12]?
**A.** binds

**Q.** Does B1 bind [13]?
**A.** binds

**Q.** Does B1 bind [14]?
**A.** binds

**Q.** Does B1 bind [15]?
**A.** no binding (tested: 10 ug/ml)

**Q.** Does B1 bind [16]?
**A.** binds

**Q.** Does B1 bind [17]?
**A.** binds

**Q.** Does B1 bind [18]?
**A.** binds

**Q.** Does B1 bind [19]?
**A.** binds

**Q.** Does B1 bind [20]?
**A.** binds

**Q.** Does B1 bind [21]?
**A.** binds

B2: H2Mab-280 antibody (antibody, mouse IgG1, kappa, V domains shown)
VH: DVKLVESGGGLVKPGGSLKLSCAASGFTFSSYSMSWVRQTPEKRLEWVAIISSGGSYTFYPDSVKGRFTISRDNAKNTLYLQMSSLKSEDTAMYHCTREAGDYWGQGTTLTVSS
VL: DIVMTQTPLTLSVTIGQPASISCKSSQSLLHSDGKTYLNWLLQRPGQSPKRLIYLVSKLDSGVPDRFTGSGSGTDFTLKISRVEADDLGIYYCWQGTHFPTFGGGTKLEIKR
**Q.** Which results are given for B2?
**A.** binding result [1]: binds; binding result [2]: binds; binding result [3]: binds; binding result [4]: binds; binding result [5]: binds; binding result [6]: binds; binding result [7]: binds; binding result [8]: binds; binding result [9]: binds; binding result [10]: binds; binding result [11]: binds; binding result [12]: binds; binding result [13]: no binding (tested: 10 ug/ml); binding result [14]: binds; binding result [15]: binds; binding result [16]: binds; binding result [17]: binds; binding result [18]: binds; binding result [19]: binds; binding result [20]: binds; binding result [21]: binds

B3: H2Mab-279 antibody (antibody, mouse IgG3, V domains shown)
VH: EVQLVESGGGLVQPGGSLKLSCAASGFSFSSYGIFWVRQTPDKRLELVATIKSNGGRTYYPDSVKGRFTISRDNAKNTLHLQMSSLKSEDTAMYYCAREGGDYWGQGTSVTVSS
VL: DIVMTQSHKIMSTSVGDRVSISCKASQDVGTAVAWYQQKPGQSPILLIYWASTRHTGVPDRFTGSGSGTDFTLTISNVQSEDLADYFCQQYKSNPLTFGAGTKLELKR
**Q.** Does B3 bind [1]?
**A.** binds

**Q.** Does B3 bind [2]?
**A.** binds

**Q.** Does B3 bind [3]?
**A.** binds

**Q.** Does B3 bind [4]?
**A.** binds

**Q.** Does B3 bind [5]?
**A.** binds

**Q.** Does B3 bind [6]?
**A.** binds

**Q.** Does B3 bind [7]?
**A.** binds

**Q.** Does B3 bind [8]?
**A.** binds

**Q.** Does B3 bind [9]?
**A.** binds

**Q.** Does B3 bind [10]?
**A.** binds

**Q.** Does B3 bind [11]?
**A.** binds

**Q.** Does B3 bind [12]?
**A.** binds

**Q.** Does B3 bind [13]?
**A.** binds

**Q.** Does B3 bind [14]?
**A.** binds

**Q.** Does B3 bind [15]?
**A.** binds

**Q.** Does B3 bind [16]?
**A.** binds

**Q.** Does B3 bind [17]?
**A.** binds

**Q.** Does B3 bind [18]?
**A.** binds

**Q.** Does B3 bind [19]?
**A.** binds

**Q.** Does B3 bind [20]?
**A.** binds

**Q.** Does B3 bind [21]?
**A.** binds

B4: H2Mab-283 antibody (antibody, mouse IgG1, kappa, V domains shown)
VH: EVQLVESGGGLVQPGGSLKLSCAASGFTFSSYGMSWVRQTPDKRLELVATINSNGGSTFYPDSVKGRFTISRDNAKNTLYLHMSSLKSEDTAIYYCVSPGSWFPYWGRGTLVTVSA
VL: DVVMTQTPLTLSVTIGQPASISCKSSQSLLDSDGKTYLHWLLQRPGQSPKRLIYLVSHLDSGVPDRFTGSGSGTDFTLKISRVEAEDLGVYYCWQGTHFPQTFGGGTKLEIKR
**Q.** Does B4 bind [22]?
**A.** binds

**Q.** Does B4 bind [23]?
**A.** binds

**Q.** Does B4 bind [24]?
**A.** binds

**Q.** Does B4 bind [25]?
**A.** binds

**Q.** Does B4 bind [26]?
**A.** binds

**Q.** Does B4 bind [27]?
**A.** binds

**Q.** Does B4 bind [28]?
**A.** binds

**Q.** Does B4 bind [29]?
**A.** binds

**Q.** Does B4 bind [30]?
**A.** binds

**Q.** Does B4 bind [31]?
**A.** binds

**Q.** Does B4 bind [32]?
**A.** binds

**Q.** Does B4 bind [33]?
**A.** binds

**Q.** Does B4 bind [34]?
**A.** no binding (tested: 10 ug/ml)

**Q.** Does B4 bind [35]?
**A.** binds

**Q.** Does B4 bind [36]?
**A.** binds

**Q.** Does B4 bind [37]?
**A.** binds

**Q.** Does B4 bind [38]?
**A.** binds

**Q.** Does B4 bind [39]?
**A.** binds

**Q.** Does B4 bind [40]?
**A.** binds

**Q.** Does B4 bind [41]?
**A.** binds

**Q.** Does B4 bind [42]?
**A.** binds
